assay: soluble on expression in E. coli; label from the status in PepcDB or PDB records

Sequence | soluble on expression in E. coli
MSLKLLIVENDRDTAAALTTSLVAQQFTVDTASDSRSALELAEATEYDLIVLDVMLPDENGIRLCRQLRTQNQQEPILLLTRKVNPADRIAGFEAGADDYITKPYELSELLARIRALLRRGSTVLTKVLCWGQLQLDPNNCEVMCQGKGLHLTPKEYKLLELFLRHPRRIFDRRTLLDRICSIDECPGEEAITTQIRGLRRKLQMAGLNSDPIETLYGLGYRLKSEGHHHHHH | not soluble
MSLKLNTSNSPFTEKQVTEINNLLQTLTESQQQWLSGFLLANSNDTTSDSNQQQLETEVWQQSQISEEQATSTTYMLQNKEPHIEANQRHVTVLYGSESGNAMRLAEIFSERLSDIGHQVVLMSMDEYDTTNIAQLEDLFIITSTHGEGEPPDNAWDFFEFLEDDNAPNLNHVRYSVLALGDQTYEFFCQAGKDVDALLENLGAERICKRVDCDIDYEEDAEKWMADIINMIDTTSEGIQSESVISESIKSAKEKKYSKLNPYQAEVLANINLNGTDSNKETRHIEFLLDDFSESYEPGDCIVALPQNDPELVEKLISMLGWDPQSPVPINDRGDTVPIVEALTSHFEFTKLTLPLLKNADIYFDNEELSERIQDESWAREYVINRDFIDLITDFPTIELQPENMYQILRKLPPREYSISSSFMATPDEVHITVGTVRYQAHGRERKGVCSVHFAERIKPGDIVPIYLKKNPNFKFPMKQDIPVIMIGPGTGIAPFRAYLQEREELGMTGKTWLFFGDQHRSSDFLYEEEIEEWLENGNLTRVDLAFSRDQEHKEYVQHRIMEESERFNEWIEQGAAIYICGDEKCMAKDVHQAIKDVLVKERHISQEEAELLLRQMKQQQRYQRDVYEGHHHHHH | soluble
MSLKLQASNVTNKNDPKSINSRVFIGNLNTALVKKSDVETIFSKYGRVAGCSVHKGYAFVQYSNERHARAAVLGENGRVLAGQTLDINMAGEPKPDR | soluble
MSLKMTFCRAVCLAAAFLLMGCDEAPETTTASPAAQVLEGKTMGTLWRVSVVGIDAKRAAELQTKIQTQLDADDWLLSTYKNDSALMRFNHSRSLAPWPVSEAMADIVTSALRIGAKTDGAMDITVGPLVNLWGFGPDRQPLHIPTPAQIDAAKAKTGLQHLQVIDRAGHQFLQKDLPDLYVDLSTVGEGYAADHLARLMEQEGIARYLVSVGGALSSRGMNAQGQPWRVAIQKPTDRENAVQAIVDINGHGISTSGSYRNYYELDGKRVSHVIDPQTGRPIEHNLVSVTVIAPTALEADGWDTGLMVLGTQKAQEVVRREGLAVFMIMKEGEGFKTWMSPQFKTFLVSDKNEGGSHHHHHH | soluble
MSLKNELEFAKKLIDFIYDSPSPFHSVDNIKNTLIENGFAEIKEENKWELNKNGKYFVKRNDSALIAFTVGSGFVAKKGFKIIGGHTDSPTFRIKPNPEMVSENSYIKLNTEVYGGPILSTWFDRPLSIAGRVTVRGKSALFPETKLLNIKRPILVIPNLAIHMNRDVNSGFKINPQVDTLPIIGIINDKFEKENYLMKIIASELGEDIENIIDFDLFLYEYDKGCIMGINNEFISSSRLDDMEMVHAGLNALVNAKCSEATNVLACFDNEEIGSATKQGADSQFLSDILERIVLSFGGDREDFFRALHNSFMISSDSAHAVHPNKGEKADPITRPHINEGPVIKISAAQKYTSDSNSIAVYEEVCRLSGVPYQKFVNRSDERGGSTIGPITATHTAIRTVDIGTPLLAMHSIRELCGTLDHMYVEKSFEEFYNEGHHHHHH | soluble
MSLKNGKIANIGLINYVDLGKIIIKAKEEGKTAVDFKAIEDIMPWDEFVSSINETSEITRPKEYNSLDLIAEKYSTLRKYTPRLLKILEFKASKKGEPVLKAMETIKELNANTKRKVPKGAPLDFVTNQWEKYVYDQEGNIDKKYYELAVFTELKNAVRSGDISIVGSKQHKPFEEYLITDSEWEKYKAENTDFKVSLDAEEYLKARLDLLNNKLKYVSDNIKKLKGVSIEDNKFVLSRLEKAVPDEAKELATKLYSLIPRVNLSDIIIDISKFTAFDNNLIHASTNKEPKDNERSCITASLMALGTNIGLKKMEQAVKGISYKQMSNVVNWRMSDDNMEKAMAAITNYHHRQPYAVHWGDGSTSSSDGVRVKSAVEALNASYNPHYGLEKGVTMYSAVSDQYSRFGVGIINTNSRDAIHIIDILLNHRTELEIEEHYTDTAGYTDQVFGLTHLLGFRFAPRLRDISDCKLYCIEGKEDFRNIQSVIKGKINTKIIKENYDDILKPVSSIKEGKVSGSLIMGKLGSYSRQNSLAKALTELGKIEKTIFILDYLSDEDFRRKIQIGLNKGEAMNALARAIFFGKYGMFHEKDIQGQLQRATALSIIINSITLWNTMYLPKAVEKLKEKEGVDESLLRHVSPLGWEHINFIGQYNLDDSSDYNLIDNMRPLREILQEGHHHHHH | not soluble
MSLKNITIGMVGVGRIGRMHVANMLAVAETLKERDLNIEIVLADAMPGFAEQVGADMGVKAAASVDKLIEDGVDALFIATSTAGHVDVLRKGIAAKLPMFCEKPIASDVPESLNIIREIDAAGATVQVGHQRRFDLGYQEAKRRLDAGDLGWLHSLKAVSSDAFPPPVSYCATSGGLFRDVSLHDFDIIRWLTGQDIVEVYAKGSNNGDPEIGAVGDIDTGAALLTLADGTLATAIATRYNGAGHDVRLDVMGSKDSTIVGLDEKSAFASAEEGIDFPTGESHPTFAERFADAYKNECIAFVELILGERENPCTPADAVAAAIVADAAQLSLVTGEPVKIPTVREILEGSAQPVEVRALVPSEGHHHHHH | soluble
MSLKNLILAIESSCDDSSIAIIDKNTLECKFHKKISQELDHSIYGGVVPELAARLHSEALPKMLKQCKEHFKNLCAIAVTNEPGLSVSLLSGISMAKTLASALNLPLIPINHLKGHIYSLFLEEKISLDMGILLVSGGHTMVLYLKDDASLELLASTNDDSFGESFDKVAKMMNLGYPGGVIIENLAKNAKLKNISFNTPLKHSKELAFSFSGLKNAVRLEILKHENLNEDTKAEIAYAFENTACDHIMDKLEKIFNLYKFKNFGVVGGASANLNLRSRLQNLCQKYNANLKLAPLKFCSDNALMIARAAVDAYEKKEFVSVEEDILSPKNKNFSRIEGHHHHHH | soluble
MSLKNNRHFLKFYCIRDLSWLSSVRASFIYSSFESIASSPFSSYIELRKKPVKFLLILFIALTLCDCGRSKETQFYLLTPISPQKNSRNSYNHLQIGVDEVSIPDYMKKPQLMIHQTPHHLTLEEFNQWAGALDKNITLVLTTNLSTLMPGVVVQTSPWNNKFHPDYHLQVMISQFEIDIHGNSTLRAEYFIYRKEELIYKGNAYYHIKVPLISIETLVQSMNTNLTHLTEEIARFFIKNTTKEGHHHHHH | not soluble
MSLKNQIEKLLENFVPEGQQEKTDFKVFQDFAADEKNLNRSSIAHFTASVFVLNESHDKILGIYHKIYQSWGWVGGHADGNADLLAVAVKEVQEETGLRSFKKLSEMPISIEALPVFGHHHRKYGYVSAHIHLNVTFLFEAKESDSLQKNTDETGGLAWIPLEKFSEKSSEKEMRVIYDKIITRIINKEGHHHHHH | soluble
MSLKNVLTGLFLLILATACSEEEPQTITPVPFNQVTLTDGFWKNRMQTEINVTVPFSVEQSAPAVERFRRCAAFLAGDSTALPETHRFISSDLYKVMEGVSYSLMIQPNKELEEFMDRVADLITASQKDDGYLYISHICGNPDPREMGEKPYSWVVHSHELYNVGHLYEAAVAYYQATGKDKLLNVAIKSAKHVNKVFFEGGDPNYNGGKPINQAPGHEEIELALCKLYRVTNDPLYLDMAKKFLEIRGVTYRPEGEGVMAPTYAQQHAPVKEQTEAVGHAVRAAYLYTAMAQVDALTGLNDYTKALNSIWTNLVTTRMHITGGLGAVEGMEGFGAPYELPNLTAYNETCAAVANVFFNYGMYLDSGDAKFLDIAELSLFNNSLAGINLHGDRFFYVNPLEADGVRRFNHGNGGRAKWFGCACCPPNISRLILQVPGYMYAYSKDRVYLTLYGGSQTTIPLEGTRVKLEQTSAYPFDGKVRLTVQPEKGSKFSVCMRIPTWARSDEFVPGGLYPYKQPKQAEVELSVNGQKTDFKMEKGFAVIKRDWKPGDVVELNIPMPVRFVDCIPEVSENIGKTAVTRGPLVYCAEEVDNAGPVQRLYLGDTNEAQAKVANISSGVLQGLERITLPGMEKKVGGITSREITMIPYYAWCNRGDNRTMLVWLNEEASTASIGQQTMAYLRNVKGVNASSVAGGKNISVRALCDGKVSESSADKLTEQWVSEGSGKQWVQVDFREPFLLNSLSVYWLDDQDKITVPSGWSVEYKSDAGWTPLELYVTDSYQMGTDRFNVVHPSGSLEVESVRILIEPQKGKSIGVSEIRFEEGHHHHHH | soluble
MSLKPDNLPVTFGKNDVEIIARETLYRGFSSLDLYRFRHRLFNGQMSHEVRREIFERGHAAVLLPFDPVRDEVVLIEQIRIAAYDTSETPWLLEMVAGMIEEGESVEDVARREAIEEAGLIVKRTKPVLSFLASPGGTSERSSIMVGEVDATTASGIHGLADENEDIRVHVVSREQAYQWVEEGKIDNAASVIALQWLQLHHQALKNEWAEGGSHHHHHH | soluble
MSLKPRVVDFDETWNKLLTTIKAVVMLEYVERATWNDRFSDIYALCVAYPEPLGERLYAETKIFLESHVRHLYRYWEEYSKGADYMDCLYRYLNTQYIKKNKLTEADIQYGYGGVDMNEPLMEIGELALDMWRKLMVEPLQNILIRMLLREIKNDRGGEDPNQKVIHGVINSFVHVEQYKKKFPLKFYQGIFVSPFLTETGEYYKQEASNLLQESNCSQYMEKVLGRLKDEEIRCRKYLHPSSYTKVIHECQQRMVADHLQFLHSECHSIIQQERKNDMANMYVLLRAVSSGLPHMIEELQKHIHDEGLRATSNLTQEHMPTLFVESVLEVHGKFVQLINTVLNGDQHFMSALDKALTSVVNYREPKSVCKAPELLAKYCDNLLKKSAKGMTENEVEDKLTSFITVFKYIDDKDVFQKFYARMLAKRLIHGLSMSMDSEEAMINKLKQACGYEFTSKLHRMYTDMSVSADLNNKFNNFIRNQDTVIDLGISFQIYVLQAGAWPLTQAPSSTFAIPQELEKSVQMFELFYSQHFSGRKLTWLHYLCTGEVKMNYLGKPYVAMVTTYQMAVLLAFNNSETVSYKELQDSTQMNEKELTKTIKSLLDVKMINHDSEKEDIDAESSFSLNMSFSSKRTKFKITTSMQKDTPQELEQTRSAVDEDRKMYLQAAIVRIMKARKVLRHNALIQEVISQSRARFNPSISMIKKCIEVLIDKQYIERSQASADEYSYVA | soluble
MSLKPVIGITGNRLVKGVDVFYGHRVTYTQQRYVDAIQKVGGFPIALPIDDPSTAVQAISLVDGLLLTGGQDITPQLYLEEPSQEIGAYFPPRDSYEIALVRAALDAGKPIFAICRGMQLVNVALGGTLYQDISQVETKALQHLQRVDEQLGSHTIDIEPTSELAKHHPNKKLVNSLHHQFIKKLAPSFKVTARTADGMIEAVEGDNLPSWYLGVQWHPELMFQTDPESEQLFQALVDESKKTMVKEGHHHHHH | soluble
MSLKPVKPPRINGRVPVLSAQEAVNYIPDEATLCVLGAGGGILEATTLITALADKYKQTQTPRNLSIISPTGLGDRADRGISPLAQEGLVKWALCGHWGQSPRISELAEQNKIIAYNYPQGVLTQTLRAAAAHQPGIISDIGIGTFVDPRQQGGKLNEVTKEDLIKLVEFDNKEYLYYKAIAPDIAFIRATTCDSEGYATFEDEVMYLDALVIAQAVHNNGGIVMMQVQKMVKKATLHPKSVRIPGYLVDIVVVDPDQTQLYGGAPVNRFISGDFTLDDSTKLSLPLNQRKLVARRALFEMRKGAVGNVGVGIADGIGLVAREEGCADDFILTVETGPIGGITSQGIAFGANVNTRAILDMTSQFDFYHGGGLDVCYLSFAEVDQHGNVGVHKFNGKIMGTGGFIDISATSKKIIFCGTLTAGSLKTEITDGKLNIVQEGRVKKFIRELPEITFSGKIALERGLDVRYITERAVFTLKEDGLHLIEIAPGVDLQKDILDKMDFTPVISPELKLMDERLFIDAAMGFVLPEAAHEGGSHHHHHH | soluble

Source: the DeepSol protein solubility set
